Each block holds one binder with its values, some of them ahead of it.
What was measured:
[1] = target: T1, PD-1 extracellular domain (human, UniProt Q15116 25-170); assay: SPR, CEACAM4 ECD-Fc immobilized, ECD-Fc analytes at 250 nM
T1 construct: extracellular domain; ECD construct; also called PDCD1; programmed cell death 1
Source text: (§1) An irrelevant Fc-tagged protein was used as a control. Sensorgram shown is representative of at least 3 independent runs.

[2] = target: T2, PD-L1 extracellular domain (human, UniProt Q9NZQ7 19-238); assay: as above
T2 construct: extracellular domain; ECD construct; also called CD274; programmed cell death 1 ligand 1
T2 sequence (Q9NZQ7 19-238): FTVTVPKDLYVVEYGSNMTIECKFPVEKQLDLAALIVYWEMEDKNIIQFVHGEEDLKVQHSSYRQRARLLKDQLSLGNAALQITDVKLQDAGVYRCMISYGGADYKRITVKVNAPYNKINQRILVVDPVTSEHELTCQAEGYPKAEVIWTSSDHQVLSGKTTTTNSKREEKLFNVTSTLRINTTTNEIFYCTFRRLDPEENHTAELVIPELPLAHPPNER
Source text: as §1

[3] = target: T3, PD-L2 extracellular domain (human, UniProt Q9BQ51 20-220); assay: SPR, calculated in equilibrium; PD-L2 immobilized, His-tagged CEACAM4 ECD as analyte (FIG. 10E)
T3 construct: extracellular domain; ECD construct; also called PDCD1LG2; programmed cell death 1 ligand 2
T3 sequence (looked up): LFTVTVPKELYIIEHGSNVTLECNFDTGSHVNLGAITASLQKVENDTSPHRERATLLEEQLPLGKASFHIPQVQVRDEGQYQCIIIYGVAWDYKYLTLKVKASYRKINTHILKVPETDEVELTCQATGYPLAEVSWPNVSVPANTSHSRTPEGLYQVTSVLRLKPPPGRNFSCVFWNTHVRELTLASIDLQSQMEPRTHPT

mouse CD177 = target: T4, mouse CD177 (mouse, UniProt Q8R2S8 22-796, limits assumed); assay: SPR
T4 sequence (looked up): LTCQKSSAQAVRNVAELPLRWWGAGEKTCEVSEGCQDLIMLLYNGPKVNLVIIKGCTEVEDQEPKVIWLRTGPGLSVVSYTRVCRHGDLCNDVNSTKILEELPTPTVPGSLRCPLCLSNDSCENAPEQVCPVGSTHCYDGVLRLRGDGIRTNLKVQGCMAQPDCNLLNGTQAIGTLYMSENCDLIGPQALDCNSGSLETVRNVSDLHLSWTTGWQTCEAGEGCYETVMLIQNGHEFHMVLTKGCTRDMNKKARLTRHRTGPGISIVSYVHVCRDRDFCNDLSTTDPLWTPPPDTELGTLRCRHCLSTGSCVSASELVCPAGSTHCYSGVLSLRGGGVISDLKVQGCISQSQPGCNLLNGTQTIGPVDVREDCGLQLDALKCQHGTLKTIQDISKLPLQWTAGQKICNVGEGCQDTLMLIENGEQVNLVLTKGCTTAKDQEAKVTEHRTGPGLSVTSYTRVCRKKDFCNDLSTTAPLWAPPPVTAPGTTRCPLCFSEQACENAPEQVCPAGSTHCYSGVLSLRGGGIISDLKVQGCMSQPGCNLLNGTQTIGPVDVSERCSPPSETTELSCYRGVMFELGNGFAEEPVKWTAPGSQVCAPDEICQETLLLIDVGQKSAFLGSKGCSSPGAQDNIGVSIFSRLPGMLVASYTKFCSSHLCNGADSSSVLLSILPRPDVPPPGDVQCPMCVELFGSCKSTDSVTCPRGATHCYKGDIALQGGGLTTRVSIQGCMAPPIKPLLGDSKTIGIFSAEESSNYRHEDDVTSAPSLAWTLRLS

[4] = target: T2, PD-L1 extracellular domain; assay: cell surface interaction assay: PD-L1 ECD tetramer on transfected cells (FIG. 4F)

T1 sequence (Q15116 25-170): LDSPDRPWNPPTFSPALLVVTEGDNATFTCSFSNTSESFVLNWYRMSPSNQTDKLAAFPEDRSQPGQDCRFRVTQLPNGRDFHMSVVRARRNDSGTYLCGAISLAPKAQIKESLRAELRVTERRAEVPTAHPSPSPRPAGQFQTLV

binding result [1]: no binding (tested: 250 nM) | binding result [2]: no binding (tested: 250 nM) | Kd [3]: 84 nM
B1: CEACAM4 extracellular domain (receptor, human, UniProt O75871 36-155, looked up)
chain: FTIEALPSSAAEGKDVLLLACNISETIQAYYWHKGKTAEGSPLIAGYITDIQANIPGAAYSGRETVYPNGSLLFQNITLEDAGSYTLRTINASYDSDQATGQLHVHQNNVPGLPVGAVAG
notes: extracellular domain; ECD construct

binding result (mouse CD177): no binding
B2: mouse PDPN (receptor, UniProt Q62011 23-141, looked up)
chain: GTIGVNEDDIVTPGTGDGMVPPGIEDKITTTGATGGLNESTGKAPLVPTQRERGTKPPLEELSTSATSDHDHREHESTTTVKVVTSHSVDKKTSHPNRDNAGDETQTTDKKDGLPVVTL

binding result [4]: no binding
B3: CEACAM4 expressed on cells (receptor, human, UniProt O75871 36-244, looked up)
chain: FTIEALPSSAAEGKDVLLLACNISETIQAYYWHKGKTAEGSPLIAGYITDIQANIPGAAYSGRETVYPNGSLLFQNITLEDAGSYTLRTINASYDSDQATGQLHVHQNNVPGLPVGAVAGIVTGVLVGVALVAALVCFLLLSRTGRASIQRDLREQPPPASTPGHGPSHRSTFSAPLPSPRTATPIYEELLYSDANIYCQIDHKADVVS
notes: whole, on cells

Source: US20220119490A1 (Genentech, published 2022)
